# Reference: patent US11104673B2, “Quaternary amine compounds and antibody-drug conjugates thereof” (priority 2014, dated 2021)
# B1: ADC1-1: Anti-Napi2b 10H1.11.4B LC K149C antibody conjugated with the Example 1 linker-drug MC-Sq-Cit-PAB Dolastatin 10 (conjugate)
# VH: EVQLVESGGGLVQPGGSLRLSCAASGFSFSDFAMSWVRQAPGKGLEWVATIGRVAFHTYYPDSMKGRFTISRDNSKNTLYLQMNSLRAEDTAVYYCARHRGFDVGHFDFWGQGTLVTVSS
# VL: DIQMTQSPSSLSASVGDRVTITCRSSETLVHSSGNTYLEWYQQKPGKAPKLLIYRVSNRFSGVPSRFSGSGSGTDFTLTISSLQPEDFATYYCFQGSFNPLTFGQGTKVEIKR
# Tests used:
# BJAB = assay: In vitro cell proliferation assay, ADC killing of BJAB cells; type: cell-based, human
# Jurkat = assay: In vitro cell proliferation assay, ADC killing of Jurkat cells; type: cell-based
# WSU-DLCL2 = assay: In vitro cell proliferation assay, ADC killing of WSU-DLCL2 cells; type: cell-based, human
# NCI-H441 = assay: EdU Prolif assay, NCI-H441; type: cell-based; conditions: NCI-H441 cells
molecule,measurement,setting,value
B1,BJAB IC50,BJAB,>20 µg/mL
same,IC50,BJAB,> 133 nM
same,IC50,Jurkat,73.6 nM
same,Jurkat IC50,Jurkat,11.04 µg/mL
same,IC50,WSU-DLCL2,44.2 nM
same,WSU-DLCL2 IC50,WSU-DLCL2,6.63 µg/mL
same,IC50,NCI-H441,95.4 nM
same,NCI-H441 IC50,NCI-H441,14.31 µg/mL
